Target: PrPBPs (prion protein binding proteins) on the surface of G8 cells (mouse muscle cell line)
Assay: Scatchard analysis, bound AP activity on G8 cells

Q: “PrP-AP fusion protein (murine PrP fused to secreted human placental heat-stable alkaline phosphatase) (from UniProt P04925 23-229; P05187 23-511)” was tested. Which Kd did it give?
A: 1.48 nM

Q: And the PrP-AP binding sites (Bmax) (binding sites)?
A: 100000
